Data on 94 variants can be found in the supplement of paper PMC10567573.

B1: COX4I1 (parent)
chain: VAHVKHLSASQKALKEKEKASWSS
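Also: lentivirally expressed fusions sorted by FACS into six bins by GFP to DsRed ratio, PSI derived from sequencing read proportions per bin multiplied by bin number.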

Variants of B1 are the subject of the series. Put plainly: protein stability index of a GFP-peptide fusion (GPS, HEK-293T) (PSI 1-6); higher = more stable. The settings on record: c terminus: a fixed tail appended.
Consider VAHVKHLSASLKALKEKEKASWSS [Q11L], for which the protein stability index came to 2.96.
For the variant VAHVKHLSASDKALKEKEKASWSS [Q11D], the protein stability index worked out at 3.21.
As for VAHVKHLSASMKALKEKEKASWSS [Q11M], the figure is 3.25.
As for VAHVKHLSASCKALKEKEKASWSS [Q11C], the figure is 3.21; as for VAHVKHLSASSKALKEKEKASWSS [Q11S], 3.35; as for VAHVKHLSASGKALKEKEKASWSS [Q11G], 2.67.
The result for VAHVKHLSASAKALKEKEKASWSS [Q11A] reads 3.28; that for VAHVKHLSASFKALKEKEKASWSS [Q11F], 2.56; that for VAHVKHLSASVKALKEKEKASWSS [Q11V], 2.65.
Turning to VAHVKHLSASYKALKEKEKASWSS [Q11Y], the protein stability index amounted to 2.08.
As for VAHVKHLSASHKALKEKEKASWSS [Q11H], the figure is 3.26; as for VAHVKHLSASRKALKEKEKASWSS [Q11R], 2.83.
Take VAHVKHLSASPKALKEKEKASWSS [Q11P]: the protein stability index is 3.6.
In the case of VAHVKHLSASTKALKEKEKASWSS [Q11T], the protein stability index came out at 2.86.
For VAHVKHLSASEKALKEKEKASWSS [Q11E], the protein stability index was 3.65.
On to VAHVKHLSASWKALKEKEKASWSS [Q11W], for which the protein stability index is 2.92.
As to VAHVKHLSASKKALKEKEKASWSS [Q11K], the protein stability index stood at 2.99.
As for VAHVKHLSASIKALKEKEKASWSS [Q11I], the figure is 2.94.
As to VAHVKHLSASNKALKEKEKASWSS [Q11N], the protein stability index was found to be 3.4.
As for VARVKHLSASQKALKEKEKASWSS [H3R], the figure is 3.19; as for VAVVKHLSASQKALKEKEKASWSS [H3V], 3.13.
Consider VAYVKHLSASQKALKEKEKASWSS [H3Y], for which the protein stability index is 2.7.
Regarding VAQVKHLSASQKALKEKEKASWSS [H3Q], the protein stability index is 3.28.
The result for VASVKHLSASQKALKEKEKASWSS [H3S] reads 3.27; that for VAPVKHLSASQKALKEKEKASWSS [H3P], 3.73; that for VATVKHLSASQKALKEKEKASWSS [H3T], 3.77.
As for VANVKHLSASQKALKEKEKASWSS [H3N], the protein stability index came to 4.5.
The result for VAWVKHLSASQKALKEKEKASWSS [H3W] reads 2.1; that for VAHVKDLSASQKALKEKEKASWSS [H6D], 3.81.
With VAHVKLLSASQKALKEKEKASWSS [H6L], the protein stability index was found to be 3.3.
VAHVKWLSASQKALKEKEKASWSS [H6W]: the protein stability index is 2.32.
Consider VAHVKILSASQKALKEKEKASWSS [H6I], for which the protein stability index was 3.24.
As for VAHVKALSASQKALKEKEKASWSS [H6A], the figure is 3.24; as for VAHVKQLSASQKALKEKEKASWSS [H6Q], 4.45; as for VAHVKCLSASQKALKEKEKASWSS [H6C], 3.21.
Consider VAHVKYLSASQKALKEKEKASWSS [H6Y], for which the protein stability index was 2.5.
For VAHVKNLSASQKALKEKEKASWSS [H6N], the protein stability index was found to be 3.38.
In the case of VAHVKVLSASQKALKEKEKASWSS [H6V], the protein stability index came out at 2.96.
As for VAHVKMLSASQKALKEKEKASWSS [H6M], the figure is 3.12; as for VAHVKTLSASQKALKEKEKASWSS [H6T], 2.97; as for VAHVKPLSASQKALKEKEKASWSS [H6P], 3.98.
As for VAHVKSLSASQKALKEKEKASWSS [H6S], the figure is 3.38; as for VAHVKELSASQKALKEKEKASWSS [H6E], 3.87; as for VAHVKRLSASQKALKEKEKASWSS [H6R], 3.41.
As for VAHVKGLSASQKALKEKEKASWSS [H6G], the figure is 3.45; as for VAHVKFLSASQKALKEKEKASWSS [H6F], 2.78.
Consider VAHVKKLSASQKALKEKEKASWSS [H6K], for which the protein stability index stood at 3.51.
As for VAHVKHFSASQKALKEKEKASWSS [L7F], the figure is 3.42; as for VAHVKHWSASQKALKEKEKASWSS [L7W], 2.84.
VAHVKHNSASQKALKEKEKASWSS [L7N]: the protein stability index was 3.85.
The result for VAHVKHTSASQKALKEKEKASWSS [L7T] reads 3.54; that for VAHVKHVSASQKALKEKEKASWSS [L7V], 3.68.
The result for VAHVKHKSASQKALKEKEKASWSS [L7K] reads 3.43; that for VAHVKHPSASQKALKEKEKASWSS [L7P], 3.91; that for VAHVKHMSASQKALKEKEKASWSS [L7M], 3.4.
As for VAHVKHRSASQKALKEKEKASWSS [L7R], the figure is 2.99.
With VAHVKHISASQKALKEKEKASWSS [L7I], the protein stability index amounted to 3.79.
The result for VAHVKHSSASQKALKEKEKASWSS [L7S] reads 3.6; that for VAHVKHQSASQKALKEKEKASWSS [L7Q], 3.36; that for VAHVKHDSASQKALKEKEKASWSS [L7D], 4.03.
Regarding VAHVKHGSASQKALKEKEKASWSS [L7G], the protein stability index came out at 3.99.
As for VAHVKHYSASQKALKEKEKASWSS [L7Y], the figure is 3.36; as for VAHVKHHSASQKALKEKEKASWSS [L7H], 3.72; as for VAHVKHESASQKALKEKEKASWSS [L7E], 4.3.
The result for VAHVKHASASQKALKEKEKASWSS [L7A] reads 2.27; that for VAHVKHCSASQKALKEKEKASWSS [L7C], 3.47.
As for VAHVKHLSASQKGLKEKEKASWSS [A13G], the protein stability index is 3.3.
VAHVKHLSASQKKLKEKEKASWSS [A13K]: the protein stability index is 3.16.
As for VAHVKHLSASQKILKEKEKASWSS [A13I], the protein stability index came out at 2.75.
The result for VAHVKHLSASQKCLKEKEKASWSS [A13C] reads 3.37.
As for VAHVKHLSASQKFLKEKEKASWSS [A13F], the figure is 2.39; as for VAHVKHLSASQKDLKEKEKASWSS [A13D], 3.82.
The result for VAHVKHLSASQKLLKEKEKASWSS [A13L] reads 2.91; that for VAHVKHLSASQKHLKEKEKASWSS [A13H], 3.17; that for VAHVKHLSASQKELKEKEKASWSS [A13E], 3.64.
With VAHVKHLSRSQKALKEKEKASWSS [A9R], the protein stability index turned out to be 3.7.
In the case of VAHVKHLSQSQKALKEKEKASWSS [A9Q], the protein stability index was 3.01.
In the case of VAHVKHLSSSQKALKEKEKASWSS [A9S], the protein stability index was determined as 3.59.
The result for VAHVKHLSHSQKALKEKEKASWSS [A9H] reads 3.19; that for VAHVKHLSVSQKALKEKEKASWSS [A9V], 3.09.
The result for VAHVKHLSFSQKALKEKEKASWSS [A9F] reads 3.55; that for VAHVKHLSISQKALKEKEKASWSS [A9I], 3.35; that for VAHVKHLSPSQKALKEKEKASWSS [A9P], 3.19.
The result for VAHVKHLSYSQKALKEKEKASWSS [A9Y] reads 2.06; that for VAHVKHLSDSQKALKEKEKASWSS [A9D], 3.87.
With VAHVKHLSTSQKALKEKEKASWSS [A9T], the protein stability index was found to be 2.93.
As for VAHVKHLSESQKALKEKEKASWSS [A9E], the figure is 4.11; as for VAHVKHLSGSQKALKEKEKASWSS [A9G], 2.38; as for VAHVKHLSCSQKALKEKEKASWSS [A9C], 2.42.
In the case of VAHVKHLSWSQKALKEKEKASWSS [A9W], the protein stability index came out at 2.47.
Regarding VAHVKHLSLSQKALKEKEKASWSS [A9L], the protein stability index is 3.23.
The result for VAHVKHLSKSQKALKEKEKASWSS [A9K] reads 3.07; that for VAHVKHLSNSQKALKEKEKASWSS [A9N], 3.43.
As for VAHVKHLSMSQKALKEKEKASWSS [A9M], the figure is 3.03.
